# From patent US9205132B2, “Method of lowering mortality” (CORTHERA, INC., priority 2008, dated 2015)
# System: patients with acute heart failure (AHF)
# Experiment: Safety endpoints (adverse events, blood pressure, renal impairment, clinical laboratory), Pre-RELAX-AHF trial
# Format: in vivo, human
# Settings: for change from baseline in mean hematocrit at 48 hours: described as transient decrease
# Protocol: Study Procedures. The study was approved by the relevant ethics committees, institutional review hoards and regulatory authorities, and conducted under the International Conference on Harmonization Good Clinical Practice guidelines. All patients provided informed written consent prior to participation. […] The placebo used for the study was the same solution as the diluent used to prepare the 100 μg/kg/day dose. The randomization ratio was 3:2:2:2:2, respectively, Relaxin (Corthera, San Mateo, Calif.) was manufactured using recombinant techniques and was identical to the naturally-occurring peptide hormone. By protocol, the study drug infusion was to be terminated if the patient's SBP was reduced to <100 mmHg or by >40 mmHg compared to baseline in two successive measurements, 15 minutes apart. Investigators were not prohibited from utilizing any standard medication, thought necessary to treat patients enrolled in the study, including additional vasodilators, following a 4-hour washout period during which time IV vasodilators, IV pure inotropes and meals were withheld, hemodynamic, renal, and clinical responses to 48 hours of study drug infusion were assessed.
# Study Endpoints. […] 4.) Length of initial hospital stay.
substance,measurement,setting,value
Relaxin,"Patients with any AE from Day 15 to Day 30, n (%)",10 mcg/kg/d IV 48 h,4 (10.0%) n (%)
same,"Patients with any SAEs to Day 30, n (%)",10 mcg/kg/d IV 48 h,7 (17.5%) n (%)
same,"Patients with any adverse events to Day 30, n (%)",10 mcg/kg/d IV 48 h,32 (80.0%) n (%)
same,Protocol-specified study drug discontinuation due to blood pressure reduction,10 mcg/kg/d IV 48 h,20.0%
same,Renal impairment: Patients with ≧0.3 mg/dL increase in creatinine at Day 5,10 mcg/kg/d IV 48 h,3 (7.9%) n (%)
same,Renal impairment: Patients with ≧0.3 mg/dL increase in creatinine at Day 5 and Day 14,10 mcg/kg/d IV 48 h,3 (7.5%) n (%)
same,Renal impairment: Patients with ≧25% increase in creatinine at Day 5,10 mcg/kg/d IV 48 h,4 (10.0%) n (%)
same,"SAE to Day 30: Acute respiratory failure, n (%)",10 mcg/kg/d IV 48 h,0 n (%)
same,"SAE to Day 30: Bronchitis, n (%)",10 mcg/kg/d IV 48 h,0 n (%)
same,"SAE to Day 30: Cardiac failure, n (%)",10 mcg/kg/d IV 48 h,2 (5.0%) n (%)
same,"SAE to Day 30: Cerebrovascular accident, n (%)",10 mcg/kg/d IV 48 h,0 n (%)
same,"SAE to Day 30: Hypotension, n (%)",10 mcg/kg/d IV 48 h,0 n (%)
same,"SAE to Day 30: Noncardiac chest pain, n (%)",10 mcg/kg/d IV 48 h,2 (5.0%) n (%)
same,"SAE to Day 30: Pneumonia, n (%)",10 mcg/kg/d IV 48 h,0 n (%)
same,"SAE to Day 30: Renal failure, n (%)",10 mcg/kg/d IV 48 h,0 n (%)
same,"SAE to Day 30: Urinary retention, n (%)",10 mcg/kg/d IV 48 h,0 n (%)
same,"SAE to Day 30: Urinary tract infection, n (%)",10 mcg/kg/d IV 48 h,0 n (%)
same,"SAE to Day 30: Ventricular fibrillation, n (%)",10 mcg/kg/d IV 48 h,1 (2.5%) n (%)
same,mean change in creatinine from baseline at Day 14,10 mcg/kg/d IV 48 h,0.07 ± 0.24 mg/dL
same,patients requiring treatment of blood pressure reduction,10 mcg/kg/d IV 48 h,None of the patients
same,proportion of patients at Day 14 with an increase in creatinine of 0.3 mg/dL or more,10 mcg/kg/d IV 48 h,19.4%
same,change from baseline in mean hematocrit at 48 hours,10 mcg/kg/d IV 48 h,0.57%
same,"Patients with any AE from Day 15 to Day 30, n (%)",30 mcg/kg/d IV 48 h,5 (11.9%) n (%)
same,"Patients with any SAEs to Day 30, n (%)",30 mcg/kg/d IV 48 h,7 (16.7%) n (%)
same,"Patients with any adverse events to Day 30, n (%)",30 mcg/kg/d IV 48 h,25 (59.5%) n (%)
same,Protocol-specified study drug discontinuation due to blood pressure reduction,30 mcg/kg/d IV 48 h,9.5%
same,Renal impairment: Patients with ≧0.3 mg/dL increase in creatinine at Day 5,30 mcg/kg/d IV 48 h,7 (18.9%) n (%)
same,Renal impairment: Patients with ≧0.3 mg/dL increase in creatinine at Day 5 and Day 14,30 mcg/kg/d IV 48 h,3 (7.3%) n (%)
same,Renal impairment: Patients with ≧25% increase in creatinine at Day 5,30 mcg/kg/d IV 48 h,9 (22.0%) n (%)
same,"SAE to Day 30: Acute respiratory failure, n (%)",30 mcg/kg/d IV 48 h,0 n (%)
same,"SAE to Day 30: Bronchitis, n (%)",30 mcg/kg/d IV 48 h,1 (2.4%) n (%)
same,"SAE to Day 30: Cardiac failure, n (%)",30 mcg/kg/d IV 48 h,1 (2.4%) n (%)
same,"SAE to Day 30: Cerebrovascular accident, n (%)",30 mcg/kg/d IV 48 h,2 (4.8%) n (%)
same,"SAE to Day 30: Hypotension, n (%)",30 mcg/kg/d IV 48 h,0 n (%)
same,"SAE to Day 30: Noncardiac chest pain, n (%)",30 mcg/kg/d IV 48 h,0 n (%)
same,"SAE to Day 30: Pneumonia, n (%)",30 mcg/kg/d IV 48 h,3 (7.1%) n (%)
same,"SAE to Day 30: Renal failure, n (%)",30 mcg/kg/d IV 48 h,1 (2.4%) n (%)
same,"SAE to Day 30: Urinary retention, n (%)",30 mcg/kg/d IV 48 h,0 n (%)
same,"SAE to Day 30: Urinary tract infection, n (%)",30 mcg/kg/d IV 48 h,1 (2.4%) n (%)
same,"SAE to Day 30: Ventricular fibrillation, n (%)",30 mcg/kg/d IV 48 h,0 n (%)
same,mean change in creatinine from baseline at Day 14,30 mcg/kg/d IV 48 h,0.13 ± 0.49 mg/dL
same,mean decrease in SBP compared to placebo during infusion,30 mcg/kg/d IV 48 h,3-4 mmHg
same,patients requiring treatment of blood pressure reduction,30 mcg/kg/d IV 48 h,None of the patients
same,proportion of patients at Day 14 with an increase in creatinine of 0.3 mg/dL or more,30 mcg/kg/d IV 48 h,26.3%
same,change from baseline in mean hematocrit at 48 hours,30 mcg/kg/d IV 48 h,1.45%
same,"Patients with any AE from Day 15 to Day 30, n (%)",100 mcg/kg/d IV 48 h,2 (5.3%) n (%)
same,"Patients with any SAEs to Day 30, n (%)",100 mcg/kg/d IV 48 h,3 (7.9%) n (%)
same,"Patients with any adverse events to Day 30, n (%)",100 mcg/kg/d IV 48 h,24 (63.2%) n (%)
same,Protocol-specified study drug discontinuation due to blood pressure reduction,100 mcg/kg/d IV 48 h,7.9%
same,Renal impairment: Patients with ≧0.3 mg/dL increase in creatinine at Day 5,100 mcg/kg/d IV 48 h,9 (26.5%) n (%)
